Measured values from patent US20190359937A1 (INNOVATIVE TARGETING SOLUTIONS, published 2019).
Each block holds one binder with its values, some of them ahead of it.

Tests used:
[1] = molecular target: T1, HER2 (as used for the affinity measurement) (UniProt P04626 23-652, limits assumed); assay: affinity of the antibody for HER2; estimated to be several hundred nM, method not stated for this antibody
[2] = molecular target: T1, HER2 (as used for the affinity …); assay: Biacore, antibody against HER2; format not stated

- Kd [1]: > 200 nM
B1: anti-HER2 antibody ITS001-V928 (antibody, V domains shown)
VH: QVQLVQSGAEVKKPGASVKVSCKASGYTFTSYGISWVRQAPGQGLEWMGWISAYNGNTNYAQKLQGRVTMTTDTSTSTAYMELRSLRSDDTAVYYCARELAYDAFDIWGQGTMVTVSS
VL: not shown
notes: The KD is told of the antibody before it was made into the IgG-TNFR1 receptor; also called ITS001-V928-based antibody; antibody of C644

- Kd [2]: 107 nM
B2: anti-HER2 antibody ITS001-V737 (antibody, V domains shown)
VH: B1 VH
VL: DIQMTQSPSSLSASVGDRVTITCRASQSISSYLNWYQQKPGKAPKLLIYAASSQAGLSLQSGVPSRFSGSGSGTDFTLTISSLQPEDFATYYCQQSYSTPLTFGGGTKVEIKR
notes: The KD by Biacore is told of the antibody before it was made into the IgG-TNFR1 receptor; also called ITS001-V737-based antibody; antibody of C645
